# Measurements reported in the supplement of paper PMC9732359.
# ± gives the uncertainty stated by the source.
# Test: protein stability index of a GFP-peptide fusion (yeast GPS) (PSI 1-4); higher = more stable; sorted into four equal gates, so the index is relative within each strain
# Outline: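 Yeast carrying a pooled library were grown to mid-log phase in leucine-free medium. Each library plasmid expresses Cherry and has a tiled 17-residue yeast protein peptide fused downstream of GFP. Cells were sorted into four equal gates by GFP/Cherry ratio, and plasmids from each gate were PCR-amplified, Illumina-sequenced and assigned to strains by barcode. Summing, across gates, the read frequency times the gate number gave each peptide's protein stability index.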
Sequence,protein stability index (doa10∆),protein stability index (pdr5∆),protein stability index (san1∆),protein stability index (ubr1∆)
KTGTKPAAVFTETLKHD [RPL4A],2.24 ± 0.077,2.19 ± 0.17,1.74 ± 0.15,2.54 ± 0.11
YQVEYAFKATNQTNINS [SCL1],2.97 ± 0.072,3.19 ± 0.056,2.99 ± 0.081,3.06 ± 0.073
PNETSEIAQANSRNAIR [RPL19A],2.7 ± 0.15,2.92 ± 0.095,2.54 ± 0.14,3.05 ± 0.13
YALQSVKLPRAFIDERA [RRP43],–,1.33 ± 0.17,1.3 ± 0.24,1.33 ± 0.075
QEPELSLDQGDAEEDSQ [SMC4],3.45 ± 0.16,–,–,3.02 ± 0.14
NQQQQNQQPQQQQQQQQ [SWI1],3.06 ± 0.049,2.93 ± 0.037,2.88 ± 0.03,2.83 ± 0.032
KKKQQGAKQTQGGAMNK [SRP72],2.07 ± 0.12,2.54 ± 0.1,3.37 ± 0.082,3.58 ± 0.062
PQQQQQHLQFNGSSDAS [YDL088C/ASM4],2.41 ± 0.042,2.22 ± 0.048,2.04 ± 0.066,2.27 ± 0.03
GDSGISPEESKARSPGI [SIR4],3.52 ± 0.15,–,–,–
KPFLKKTQEYYTQYTND [CDC53],3.02 ± 0.061,3.12 ± 0.053,3.07 ± 0.044,3.01 ± 0.046
QEEEGELEHLTKKSKLE [DSN1],3.02 ± 0.053,3.17 ± 0.056,3.14 ± 0.043,3.18 ± 0.043
LPNQIPGEYITTIKAIF [YMR129W/POM152],2.37 ± 0.055,2.51 ± 0.055,2.78 ± 0.053,3.11 ± 0.041
RDKAGRLAEVNLKDLNN [RPO21],3.15 ± 0.11,2.75 ± 0.083,2.55 ± 0.086,2.79 ± 0.11
MEWPKDMLKYKEDEPVV [ITC1],2.75 ± 0.27,3.12 ± 0.14,3.36 ± 0.09,3.67 ± 0.17
ENKTKKDNDKNLKFLKN [SRB4],3.42 ± 0.064,3.4 ± 0.079,3.28 ± 0.048,3.42 ± 0.057
TSADLKSKAEELTQVPS [UBP6],3.16 ± 0.21,3.22 ± 0.12,2.79 ± 0.13,3.12 ± 0.18
YRSHIFATNEERQMNFL [SWI3],3.24 ± 0.091,2.69 ± 0.081,2.59 ± 0.081,2.72 ± 0.051
ICEDPETAKKITFHPKI [SMC2],2.84 ± 0.1,2.74 ± 0.084,2.16 ± 0.28,2.9 ± 0.077
FEETKLSTTPTKSNRRV [SIR4],2.65 ± 0.1,2.83 ± 0.12,2.73 ± 0.12,2.78 ± 0.15
EDFPIDTWANGETIKSN [SEM1],3.55 ± 0.14,3.61 ± 0.19,3.13 ± 0.2,3.15 ± 0.15
GSEVRLRDDTLPKAWIS [COR1],2.49 ± 0.053,2.75 ± 0.065,2.72 ± 0.075,2.69 ± 0.06

Sequence,protein stability index (doa10∆),protein stability index (pdr5∆),protein stability index (san1∆),protein stability index (ubr1∆)
GDKFSEDFRIQFKTTIK [UBP6],3.14 ± 0.1,2.93 ± 0.09,2.32 ± 0.087,2.58 ± 0.059
QAIAKNNPQVVNAITVA [SNF5],1.85 ± 0.039,2.02 ± 0.043,1.63 ± 0.05,1.61 ± 0.036
VAKTAPNSNKTHTEQNN [SNF2],2.82 ± 0.04,3.07 ± 0.052,3.01 ± 0.033,3.06 ± 0.037
YMRKQVGVGKLNKLYGG [RPS19A],2.99 ± 0.16,2.48 ± 0.17,2.89 ± 0.14,3.41 ± 0.12
STIDANFADKYDEVKKH [RPL8A],2.5 ± 0.12,3.08 ± 0.11,2.92 ± 0.081,2.93 ± 0.1
LDRRFEIFFKKDSLWQS [FAS1],3.15 ± 0.13,3.16 ± 0.11,2.52 ± 0.26,2.91 ± 0.061
DFSLRYISNLLYGVTIC [REC8],2.13 ± 0.039,1.71 ± 0.041,1.83 ± 0.074,1.5 ± 0.027
IDEVFSWYLNTFDGIRM [GRR1],2.42 ± 0.049,1.83 ± 0.039,2.14 ± 0.062,1.88 ± 0.039
IGLPRHSLAYLLENFAN [RRP6],1.67 ± 0.04,1.78 ± 0.041,1.64 ± 0.072,1.87 ± 0.025
IKIVYALTTIKGVGRRY [RPS18A],1.87 ± 0.12,1.95 ± 0.078,2.06 ± 0.17,1.61 ± 0.075
ATESIKNRRRIHGELKT [SMC1],2.83 ± 0.17,3.09 ± 0.12,2.28 ± 0.26,2.61 ± 0.14
NVFHGLCAGANNPKIQT [IRR1],1.59 ± 0.062,1.97 ± 0.077,1.48 ± 0.086,1.56 ± 0.073
PQAVTITSIMDDLALPY [ITC1],2.85 ± 0.077,2.98 ± 0.062,2.72 ± 0.059,3.02 ± 0.046
DSLNDDLNKENKLLRRK [YIL149C/MLP2],2.98 ± 0.21,3.24 ± 0.18,3.01 ± 0.15,3.31 ± 0.065
DDRGPVLESIVARTFWA [BRR2],2.67 ± 0.09,2.07 ± 0.057,2.9 ± 0.11,2.85 ± 0.077
KLRARLVEYGFDPSRIK [SMC2],2.73 ± 0.06,2.62 ± 0.092,2.33 ± 0.08,2.01 ± 0.034
YENIPIYATFLNESDCL [YDL116W/NUP84],2.16 ± 0.098,2.54 ± 0.15,2.15 ± 0.15,2.62 ± 0.1
TGKERSKKRKLNSLTNL [SNM1],2.41 ± 0.11,3.04 ± 0.093,2.89 ± 0.075,2.67 ± 0.13
PQKSSSKGFVFNSVQKK [YAR002W/NUP60],1.65 ± 0.088,1.4 ± 0.1,1.83 ± 0.14,1.18 ± 0.13
CSNPTCGAGVFLANHKD [RPS31],3.06 ± 0.12,2.82 ± 0.21,2.57 ± 0.24,2.73 ± 0.14
